From patent US20100022445A1 (BAXALTA, published 2010)
*1 amine or outer side, *2 acyl side, *3 side chain or, on linkers, in order; H or OH if unused. Where no end group is shown, it is not given here. [ ]: non-standard residue; d: D form. NH(CH2)3(OCH2CH2)2O(CH2)3NH = C(CN[*:1])COCCOCCOCCCN[*:2]

How the values were obtained:
HERG channel = HERG channel (UniProt Q12809 1-1159, limits assumed); experiment: cell-based or functional assay
mouse plasma = experiment: equilibrium dialysis (HTD-96, 12-14 kD cut-off), 5 µM A01 in undiluted mouse plasma, 6 h at 37 °C, LC/MS/MS
human plasma = experiment: equilibrium dialysis (HTD-96, 12-14 kD cut-off), 5 µM A01 in undiluted human plasma, 6 h at 37 °C, LC/MS/MS

Sequence of HERG channel (Q12809 whole entry): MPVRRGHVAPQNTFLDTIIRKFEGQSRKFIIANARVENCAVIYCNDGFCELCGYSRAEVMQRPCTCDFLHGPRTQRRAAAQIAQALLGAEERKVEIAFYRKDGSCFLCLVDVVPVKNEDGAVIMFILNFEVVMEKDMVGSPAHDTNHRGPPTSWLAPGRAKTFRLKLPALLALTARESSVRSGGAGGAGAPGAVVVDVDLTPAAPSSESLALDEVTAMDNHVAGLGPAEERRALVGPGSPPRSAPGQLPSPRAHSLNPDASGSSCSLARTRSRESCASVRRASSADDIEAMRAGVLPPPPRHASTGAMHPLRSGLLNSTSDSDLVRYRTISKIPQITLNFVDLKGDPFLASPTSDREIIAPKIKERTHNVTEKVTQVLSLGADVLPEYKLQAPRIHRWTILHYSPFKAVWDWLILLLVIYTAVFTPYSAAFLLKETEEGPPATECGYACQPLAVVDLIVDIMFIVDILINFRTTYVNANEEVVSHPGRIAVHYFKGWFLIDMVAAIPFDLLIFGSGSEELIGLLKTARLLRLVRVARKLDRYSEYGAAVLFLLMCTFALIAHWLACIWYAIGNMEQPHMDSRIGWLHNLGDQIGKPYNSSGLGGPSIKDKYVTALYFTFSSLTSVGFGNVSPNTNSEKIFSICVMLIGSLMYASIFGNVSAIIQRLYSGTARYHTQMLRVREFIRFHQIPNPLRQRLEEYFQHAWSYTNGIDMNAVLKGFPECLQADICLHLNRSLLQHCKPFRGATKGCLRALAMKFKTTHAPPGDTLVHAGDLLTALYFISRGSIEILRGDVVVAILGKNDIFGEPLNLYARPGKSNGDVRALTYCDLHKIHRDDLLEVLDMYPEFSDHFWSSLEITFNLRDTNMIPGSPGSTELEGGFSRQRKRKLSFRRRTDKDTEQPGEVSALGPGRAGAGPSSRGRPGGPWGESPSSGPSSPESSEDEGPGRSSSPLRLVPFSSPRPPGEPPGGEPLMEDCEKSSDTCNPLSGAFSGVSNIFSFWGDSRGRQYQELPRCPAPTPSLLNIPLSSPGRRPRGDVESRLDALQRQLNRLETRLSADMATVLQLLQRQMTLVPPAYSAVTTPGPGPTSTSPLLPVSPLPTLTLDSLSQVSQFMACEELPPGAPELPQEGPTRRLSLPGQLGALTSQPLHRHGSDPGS

Question: With Ac-WDLYFEIVW-NH2 [A05 (Ac-WDLYFEIVW-NH2)] as the binder, how does the “HERG inhibition patch-clamp (% Inhibition of Tail Current at 1 µM)” value (HERG channel) read?
Answer: 14.5%

Question: How did the “HERG inhibition Rb+ efflux (% Inhibition at 10 µM)” value (HERG channel) turn out when Ac-PMKFDVWDLYFEIVW-NH2 [A02 (Ac-PMKFDVWDLYFEIVW-NH2)] was run?
Answer: -3.3%

Question: Which “HERG inhibition patch-clamp (% Inhibition of Tail Current at 1 µM)” value (HERG channel) does the source give for Ac-RMKFDVWDLYFEIVW-NH2 [A01 (Ac-RMKFDVWDLYFEIVW-NH2)] here?
Answer: 16.5%

B1: B03 (Ac-cimfwydeye-NH2) (peptide)
peptide: Ac-[dC][dI][dM][dF][dW][dY][dD][dE][dY][dE]-NH2
SMILES: CC[C@@H](C)[C@@H](NC(=O)[C@@H](CS)NC(C)=O)C(=O)N[C@H](CCSC)C(=O)N[C@H](Cc1ccccc1)C(=O)N[C@H](Cc1c[nH]c2ccccc12)C(=O)N[C@H](Cc1ccc(O)cc1)C(=O)N[C@H](CC(=O)O)C(=O)N[C@H](CCC(=O)O)C(=O)N[C@H](Cc1ccc(O)cc1)C(=O)N[C@H](CCC(=O)O)C(N)=O
Question: With B1 as the binder, how does the “HERG inhibition Rb+ efflux (% Inhibition at 10 µM)” value (HERG channel) read?
Answer: -2.1%

Question: And the “HERG inhibition patch-clamp (% Inhibition of Tail Current at 1 µM)” value (HERG channel)?
Answer: 84.5%

Question: With Ac-RMKFDVWDLYFEIVW-NH2 [A01 (Ac-…-NH2)] as the binder, how does the Average % Bound (mouse plasma) read?
Answer: > 99.2%

Question: And the Average % Bound (human plasma)?
Answer: > 98.3%

Question: With ERMEFDVWDLYFEIVW-NH2 [A09 (ERMEFDVWDLYFEIVW-NH2)] as the binder, how does the “HERG inhibition Rb+ efflux (% Inhibition at 10 µM)” value (HERG channel) read?
Answer: -1.6%

Question: With Ac-WDLYFEIVW[NH(CH2)3(OCH2CH2)2O(CH2)3NH]E [A07 (Ac-WDLYFEIVW-ttds-E)] as the binder, how does the “HERG inhibition Rb+ efflux (% Inhibition at 10 µM)” value (HERG channel) read?
Answer: -3.4%

Question: For Ac-WDLYFEIVWE [A06 (Ac-WDLYFEIVWE)], which “HERG inhibition Rb+ efflux (% Inhibition at 10 µM)” value (HERG channel) is on record?
Answer: -6.4%

Question: PEG5000-RMKFDVWDLYFEIVW-NH2 [A16 (PEG5000-RMKFDVWDLYFEIVW-NH2)] was tested. Which “HERG inhibition patch-clamp (% Inhibition of Tail Current at 1 µM)” value (HERG channel) did it give?
Answer: 22.2%
